What was measured:
[1] = target: FcγRIIIa-V158 on Promega Jurkat effector cells (UniProt P08637 17-254, limits assumed); assay: cell-based or functional assay
human CD37 = target: T1, human CD37 (human, UniProt P11049 1-281); assay: reference to the competitive binding of Example 6
T1 construct: whole, on cells; also called CD37 antigen
T1 sequence (looked up): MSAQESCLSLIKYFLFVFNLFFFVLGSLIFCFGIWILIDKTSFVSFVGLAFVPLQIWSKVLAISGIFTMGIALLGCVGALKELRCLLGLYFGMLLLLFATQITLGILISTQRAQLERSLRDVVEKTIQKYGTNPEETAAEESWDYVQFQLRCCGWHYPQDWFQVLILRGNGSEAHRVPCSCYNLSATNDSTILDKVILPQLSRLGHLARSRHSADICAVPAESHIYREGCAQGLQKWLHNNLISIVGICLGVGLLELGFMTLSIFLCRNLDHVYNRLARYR

[2] = target: T2, biotinylated soluble human FcRn (human, UniProt P55899 24-297; P61769 21-119, biotinylated); assay: ELISA: IgG coated at 1000-0.45 ng/ml, biotinylated soluble human FcRn 250 ng/ml pre-complexed with AP-streptavidin, pH 6.0, absorbance 405 nm
T2 construct: extracellular domain; Bought; Beta-2-microglobulin is not mentioned; Used as preformed complex with AP-streptavidin
Procedure: (§1) Remaining surface area were blocked with PBS containing 0.05% T and 4% S for 1 h at RT. The plates were washed four times with PBS/T using a Hydrospeed™ plate washer (Tecan). […] Following washing as above with PBS/T or FcRn binding buffer (67 nM phosphate, 0.1 M NaCl, 0.05% T, pH 6.0), bound receptor was visualized by addition of phosphatase substrate (1 mg/ml in diethanolamine buffer) (Sigma Aldrich). The plates were developed for 20-30 min before the 405 nm absorption values were recorded using a TECAN Sunrise spectrophotometer (Tecan).

[3] = target: T3, biotinylated truncated soluble human FcγRI (human, UniProt P12314 16-292, biotinylated); assay: ELISA: IgG coated at 10000-4.5 ng/ml, biotinylated truncated soluble human FcγRI 250 ng/ml pre-complexed with AP-streptavidin, absorbance 405 nm
T3 construct: extracellular domain; Bought; preformed complex with AP-streptavidin
Procedure: as §1, with “96 well EIA/RIA plates (CorningCostar) were coated with 100 μl titrated amounts of IgG variants (10.000-4.5 ng/ml) diluted in PBS and incubated O/N at 4° C. Remaining” for “Remaining”, “above,” for “above with PBS/T or FcRn binding buffer (67 nM phosphate, 0.1 M NaCl, 0.05% T, pH 6.0),”, “15-20” for “20-30”

[4] = target: T4, biotinylated truncated soluble human FcγRIIb (human, UniProt P31994 43-217, biotinylated); assay: ELISA: IgG coated at 10000-4.5 ng/ml, biotinylated truncated soluble human FcγRIIb 250 ng/ml pre-complexed with AP-streptavidin, absorbance 405 nm
T4 construct: extracellular domain; Bought
T4 sequence (looked up): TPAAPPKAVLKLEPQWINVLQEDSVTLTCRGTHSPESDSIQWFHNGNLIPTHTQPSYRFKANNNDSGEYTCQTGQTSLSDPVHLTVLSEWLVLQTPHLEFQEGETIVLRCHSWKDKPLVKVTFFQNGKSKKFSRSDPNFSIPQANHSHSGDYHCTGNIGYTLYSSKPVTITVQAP
Procedure: as §1, with “96 well EIA/RIA plates (CorningCostar) were coated with 100 μl titrated amounts of IgG variants (10.000-4.5 ng/ml) diluted in PBS and incubated O/N at 4° C. Remaining” for “Remaining”, “above,” for “above with PBS/T or FcRn binding buffer (67 nM phosphate, 0.1 M NaCl, 0.05% T, pH 6.0),”, “15-20” for “20-30”

[5] = target: T5, human complement factor C1q (human, UniProt P02745 23-245; P02746 28-253; P02747 29-245); assay: ELISA: IgG coated at 20000-156.25 ng/ml, human C1q 360 ng/ml, detected with rabbit anti-human C1q and HRP anti-rabbit IgG (y axis printed as Absorbance 405 nm)
T5 construct: Bought
Procedure: (§2) Remaining surface area were blocked with PBS containing 0.05% T and 4% S for 1 h at RT. The plates were then washed four times with PBS/T using a Hydrospeed™ plate washer (Tecan). Human C1q (Complement Technologies) diluted to 360 ng/ml in veronal buffer (Complement Technologies) were added and incubated for 30 min at 37° C. Detection of bound C1q was performed using a primary anti-human C1q antibody from rabbit (DAKO) diluted 1:10.000 in PBS/T/S and a secondary horseradish peroxidase (HRP) conjugated anti-rabbit IgG antibody diluted 1:5000 in PBS/T/S (GE Healthcare). Binding was visualized by addition of 100 μl TMB substrate (Calbiochem) for 15-20 min before the enzymatic reaction was stopped by addition of 50 μl 1 M HC1. The 450 nm absorption values were recorded using a Sunrise TECAN spectrophotometer (Tecan).

[6] = target: T6, biotinylated truncated soluble human FcγRIIIb (human, UniProt O75015 17-200, limits assumed, biotinylated); assay: ELISA: IgG coated at 10000-4.5 ng/ml, biotinylated truncated soluble human FcγRIIIb 250 ng/ml pre-complexed with AP-streptavidin, absorbance 405 nm
T6 construct: extracellular domain; Bought
Procedure: as §1, with “96 well EIA/RIA plates (CorningCostar) were coated with 100 μl titrated amounts of IgG variants (10.000-4.5 ng/ml) diluted in PBS and incubated O/N at 4° C. Remaining” for “Remaining”, “above,” for “above with PBS/T or FcRn binding buffer (67 nM phosphate, 0.1 M NaCl, 0.05% T, pH 6.0),”, “15-20” for “20-30”

[7] = target: T5, human complement factor C1q; assay: repeat ELISA: IgG coated at 20000-156.25 ng/ml, human C1q 360 ng/ml, detected with rabbit anti-human C1q and HRP anti-rabbit IgG (y axis printed as Absorbance 405 nm)
Procedure: as §2

[8] = target: T7, biotinylated truncated soluble human FcγRIIa-H131 (human, UniProt P12318 34-217, biotinylated); assay: ELISA: IgG coated at 10000-4.5 ng/ml, biotinylated truncated soluble human FcγRIIa-H131 250 ng/ml pre-complexed with AP-streptavidin, absorbance 405 nm
T7 construct: extracellular domain; Bought
T7 sequence (looked up): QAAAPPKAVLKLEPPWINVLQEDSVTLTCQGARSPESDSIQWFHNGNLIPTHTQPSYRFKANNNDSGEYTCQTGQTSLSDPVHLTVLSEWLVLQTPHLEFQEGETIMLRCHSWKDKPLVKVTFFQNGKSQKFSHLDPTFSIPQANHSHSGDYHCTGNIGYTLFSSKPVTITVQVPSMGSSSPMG
Procedure: as §1, with “96 well EIA/RIA plates (CorningCostar) were coated with 100 μl titrated amounts of IgG variants (10.000-4.5 ng/ml) diluted in PBS and incubated O/N at 4° C. Remaining” for “Remaining”, “above,” for “above with PBS/T or FcRn binding buffer (67 nM phosphate, 0.1 M NaCl, 0.05% T, pH 6.0),”, “15-20” for “20-30”

[9] = target: T8, biotinylated truncated soluble human FcγRIIa-R131 (human, UniProt P12318 34-217, biotinylated); assay: ELISA: IgG coated at 10000-4.5 ng/ml, biotinylated truncated soluble human FcγRIIa-R131 250 ng/ml pre-complexed with AP-streptavidin, absorbance 405 nm
T8 construct: extracellular domain; Bought
T8 sequence (looked up): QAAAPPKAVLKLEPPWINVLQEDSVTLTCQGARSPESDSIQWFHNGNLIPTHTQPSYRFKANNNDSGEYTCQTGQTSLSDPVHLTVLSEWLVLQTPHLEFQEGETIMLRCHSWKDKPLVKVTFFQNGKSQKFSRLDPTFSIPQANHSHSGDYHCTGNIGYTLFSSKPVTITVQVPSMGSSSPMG
Procedure: as §1, with “96 well EIA/RIA plates (CorningCostar) were coated with 100 μl titrated amounts of IgG variants (10.000-4.5 ng/ml) diluted in PBS and incubated O/N at 4° C. Remaining” for “Remaining”, “above,” for “above with PBS/T or FcRn binding buffer (67 nM phosphate, 0.1 M NaCl, 0.05% T, pH 6.0),”, “15-20” for “20-30”

[10] = target: T9, biotinylated truncated soluble human FcγRIIIa-F158 (human, UniProt P08637 17-208, biotinylated); assay: ELISA: IgG coated at 10000-4.5 ng/ml, biotinylated truncated soluble human FcγRIIIa-F158 250 ng/ml pre-complexed with AP-streptavidin, absorbance 405 nm
T9 construct: extracellular domain; Bought
Procedure: as §1, with “96 well EIA/RIA plates (CorningCostar) were coated with 100 μl titrated amounts of IgG variants (10.000-4.5 ng/ml) diluted in PBS and incubated O/N at 4° C. Remaining” for “Remaining”, “above,” for “above with PBS/T or FcRn binding buffer (67 nM phosphate, 0.1 M NaCl, 0.05% T, pH 6.0),”, “15-20” for “20-30”

[11] = target: T10, biotinylated truncated soluble human FcγRIIIa-V158 (human, UniProt P08637 17-208, biotinylated); assay: ELISA: IgG coated at 10000-4.5 ng/ml, biotinylated truncated soluble human FcγRIIIa-V158 250 ng/ml pre-complexed with AP-streptavidin, absorbance 405 nm
T10 construct: extracellular domain; Bought
Procedure: as §1, with “96 well EIA/RIA plates (CorningCostar) were coated with 100 μl titrated amounts of IgG variants (10.000-4.5 ng/ml) diluted in PBS and incubated O/N at 4° C. Remaining” for “Remaining”, “above,” for “above with PBS/T or FcRn binding buffer (67 nM phosphate, 0.1 M NaCl, 0.05% T, pH 6.0),”, “15-20” for “20-30”

T5 sequence (P02745 23-245 limits assumed, chain 1 of 3): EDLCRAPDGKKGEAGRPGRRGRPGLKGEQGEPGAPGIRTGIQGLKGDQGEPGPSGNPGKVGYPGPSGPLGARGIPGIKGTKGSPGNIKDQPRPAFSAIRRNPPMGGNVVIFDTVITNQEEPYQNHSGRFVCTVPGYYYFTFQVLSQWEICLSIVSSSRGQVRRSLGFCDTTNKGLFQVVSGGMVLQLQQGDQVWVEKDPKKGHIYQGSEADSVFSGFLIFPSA
T5 sequence (P02746 28-253 limits assumed, chain 2 of 3): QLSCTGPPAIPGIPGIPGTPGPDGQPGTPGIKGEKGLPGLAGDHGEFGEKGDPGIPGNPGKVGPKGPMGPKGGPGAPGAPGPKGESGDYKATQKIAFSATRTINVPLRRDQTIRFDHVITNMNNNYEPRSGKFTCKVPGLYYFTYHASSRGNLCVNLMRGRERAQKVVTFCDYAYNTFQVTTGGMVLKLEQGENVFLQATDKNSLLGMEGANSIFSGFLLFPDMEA
T5 sequence (P02747 29-245 limits assumed, chain 3 of 3): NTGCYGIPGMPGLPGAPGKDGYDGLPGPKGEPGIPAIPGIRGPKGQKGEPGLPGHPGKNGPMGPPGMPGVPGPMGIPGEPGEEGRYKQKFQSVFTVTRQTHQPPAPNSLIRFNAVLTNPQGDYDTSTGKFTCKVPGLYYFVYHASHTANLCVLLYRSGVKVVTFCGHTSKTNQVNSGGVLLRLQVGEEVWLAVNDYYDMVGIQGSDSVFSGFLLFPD
T2 sequence (P55899 24-297 limits assumed, chain 1 of 2): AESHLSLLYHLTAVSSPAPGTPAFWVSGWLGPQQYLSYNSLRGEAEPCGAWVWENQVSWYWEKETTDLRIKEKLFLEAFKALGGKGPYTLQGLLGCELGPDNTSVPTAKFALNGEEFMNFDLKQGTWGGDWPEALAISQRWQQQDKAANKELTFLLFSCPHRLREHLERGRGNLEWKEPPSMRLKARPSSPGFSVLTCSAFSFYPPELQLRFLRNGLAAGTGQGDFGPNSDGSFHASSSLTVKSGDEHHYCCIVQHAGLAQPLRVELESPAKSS
T2 sequence (P61769 21-119 limits assumed, chain 2 of 2): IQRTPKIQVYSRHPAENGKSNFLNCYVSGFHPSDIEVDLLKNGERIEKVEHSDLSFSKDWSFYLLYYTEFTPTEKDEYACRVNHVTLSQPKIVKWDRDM
T6 sequence (O75015 17-200 limits assumed): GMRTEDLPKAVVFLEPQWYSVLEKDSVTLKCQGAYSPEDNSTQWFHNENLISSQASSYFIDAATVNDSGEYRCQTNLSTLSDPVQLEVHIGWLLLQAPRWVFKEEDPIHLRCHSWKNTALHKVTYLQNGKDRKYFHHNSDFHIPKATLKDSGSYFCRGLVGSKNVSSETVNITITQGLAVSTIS
T3 sequence (P12314 16-292): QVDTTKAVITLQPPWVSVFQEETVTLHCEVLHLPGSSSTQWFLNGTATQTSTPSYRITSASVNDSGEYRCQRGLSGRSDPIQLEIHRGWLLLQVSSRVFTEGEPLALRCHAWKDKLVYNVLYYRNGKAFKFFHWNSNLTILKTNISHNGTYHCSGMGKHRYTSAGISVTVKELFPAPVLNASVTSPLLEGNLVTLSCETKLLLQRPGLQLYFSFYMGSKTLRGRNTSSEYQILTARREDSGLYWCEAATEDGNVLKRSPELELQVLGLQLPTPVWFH

B1: NNV024 (antibody, human IgG1)
heavy: not shown
light: DIQMTQSPSSLSASVGDRVTITCKASQDVSTAVDWYQQKPGKSPKLLINWASTRHTGVPSRFSGSGSGTDYTLTISSLQPEDFATYYCRQHYSTPFTFGQGTKLEIKRTDAAPSVFIFPPSDEQLKSGTASVVCLLNNFYPREAKVQWKVDNALQSGNSQESVTEQDSKDSTYSLSSTLTLSKADYEKHKVYACEVTHQGLSSPVTKSFNRGEC
modifications: afucosylated N-glycan (GlymaxX technology)
notes: Humanized IgG1 kappa, same chains as NNV023, afucosylated; also called afucosylated NNV023; AH02871HC_2877LC-110D GlymaxX
- ADCC signaling at 1 µg/mL relative to obinutuzumab, patient-derived CLL cells [1]: ~3 fold
- average Emax relative to rituximab, ADCC FcγRIIIa-158V reporter assay, ten B-NHL cell lines [1]: 1.36 fold
- average potency (EC50) relative to rituximab, ADCC FcγRIIIa-158V reporter assay [1]: 35.5 fold
- average potency of the ADCC response (Example 13) [1]: 0.6 nM
- binding result (human CD37): binds
- EC50 (read off the curve) [2]: ~0.04 µg/mL
- EC50 (read off the curve) [3]: ~0.4 µg/mL
- EC50 (read off the curve) [4]: ~0.7 µg/mL
- EC50 (read off the curve) [5]: ~3 µg/mL
- EC50 (read off the curve) [6]: ~0.4 µg/mL
- EC50 (read off the curve) [7]: ~2 µg/mL
- EC50 (read off the curve) [8]: ~0.3 µg/mL
- EC50 (read off the curve) [9]: ~0.8 µg/mL
- EC50 (read off the curve) [10]: ~0.2 µg/mL
- EC50 (read off the curve) [11]: ~0.6 µg/mL
